From doi:10.1101/2021.05.23.445342
Several values for one entry are separate records, joined by “and”; a condition that tells them apart may be missing. Equal values may be shown once.

What was measured:
[1] = biological target: Biotin-Cys-AKAP5c (human) (UniProt P24588); assay: SPR
[2] = biological target: Biotin-Cys-AKAP5c_(ILVF->SA) (human) (UniProt P24588); assay: SPR
[3] = biological target: Calcineurin (human PPP3CA / PPP3R1 heterodimer) (human) (UniProt Q08209); assay: AUC

Kd of a further surface site class [1]: 1 to 10 µM | Kd of surface site class 1 (one or possibly two very similar sites) [1]: 0.01 to 0.1 µM | Kd of the one main surface site class [2]: 0.1 µM and 1 µM | Kd [3]: 100 µM | percent heterotetramer [3]: 8%
Substance: Calcineurin (human PPP3CA / PPP3R1 heterodimer) (from UniProt Q08209 1-521; P63098 1-170) (complex)
